Reference: article PMC4264199, “Peptide Array on Cellulose Support—A Screening Tool to Identify Peptides with Dipeptidyl-Peptidase IV Inhibitory Activity within the Sequence of α-Lactalbumin” (International Journal of Molecular Sciences, 2014)
Several values for one entry are separate records, joined by “and”; a condition that tells them apart may be missing. Equal values may be shown once. Entries after “also recorded” stand apart in the source; their conditions may differ. Ends that are not written are not given here.

Key:
[1] = tested on: DPP-IV; details: Table S2; cited from earlier work
[2] = target: T1, dipeptidyl-peptidase IV (DPP-IV) (Homo sapiens, UniProt P27487); experiment: Probing of membrane-bound peptide arrays: binding of DPP-IV to deca-peptides (immunoassay, chemiluminescence); details: for Binding of DPP-IV to cellulose-bound deca-peptide (in words): peptide array on cellulose membrane, DPP-IV 10 μg/mL
T1 construct: purchased Creative BioMart (Shirley, NY, USA); host or cells: HEK293 human cells
Method: The interaction between the DPP-IV enzyme and deca-peptides spanning the entire α-lactalbumin sequence (Table S1) was first determined by immunoassay and visualized using an enhanced chemiluminescence substrate (Figure 1).
The membranes were first blocked with protein-free (Tris-buffered saline (TBS)) blocking buffer containing 0.05% Tween-20 for 4 h at room temperature and then incubated with DPP-IV (10 μg/mL in blocking buffer) overnight at 4 °C. The membranes were washed with TBS (50 mM Tris, 136 mM NaCl, 0.05% Tween-20, pH 8.0) four times for 15 min each, after which they were incubated with the polyclonal goat DPP-IV antibody (0.2 µg/mL) for 8 h at 4 °C. The membranes were once again washed with TBS four times for 15 min each prior to being incubated with anti-goat secondary antibody conjugated to horseradish peroxidase (0.1 µg/mL) overnight at 4 °C. Finally, the membranes were washed four more times for 15 min each; then a thin layer of chemiluminescence detection mixture, prepared according to the manufacturer’s instructions, was applied for 1 min and the luminescence generated from the spots on the membranes with bound DPP-IV was measured using a ChemiDoc™ MP system (Bio-Rad Laboratories (Canada) Ltd., Mississauga, ON, Canada).

[3] = target: T1, dipeptidyl-peptidase IV (DPP-IV); experiment: DPP-IV inhibition assay on SPOT-synthesized peptides (cleaved from cellulose membrane); type: biochemical; details: for Percent inhibition of DPP-IV activity, SPOT-synthesized deca-peptides: peptides cleaved from cellulose membrane, concentration not known (semi-quantitative), averages of four determinations from two experiments
Summary of the method: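 Human DPP-IV expressed in HEK293 cells, with Gly–Pro–p-NA substrate (0.29 mM stock), was tested against α-lactalbumin decapeptides ammonia-cleaved from SPOT cellulose membranes and eluted in 50% acetonitrile/Tris, pH 8.0. After a 10-min preincubation, reaction ran 30 min at 37 °C, was stopped at pH 4.0, and p-nitroaniline absorbance was read at 405 nm.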

[4] = target: T1, dipeptidyl-peptidase IV (DPP-IV); experiment: DPP-IV inhibition assay on traditionally-synthesized peptides; type: biochemical; details: 250 µM of peptides (final assay concentration); averages of three determinations
Excerpt: Recombinant human dipeptidyl-peptidase IV (DPP-IV, EC 3.4.14.5, expressed in HEK293 human cells, >95% purity, activity >5500 pmoles Gly–Pro–7-amido-4-methylcoumarin/min/µg) was purchased from Creative BioMart (Shirley, NY, USA) while polyclonal goat DPP-IV antibody and polyclonal donkey anti-goat secondary antibody conjugated to horseradish peroxidase were obtained from R&D Systems (Minneapolis, MN, USA). Pierce™ ECL western blotting substrate and protein-free (TBS) blocking buffer were from Thermo Scientific (Rockford, IL, USA). Gly–Pro–p-nitroanilide (H-Gly–Pro–p-NA∙HCl) was purchased from Bachem Americas (Torrance, CA, USA). Synthesized peptides (≥95% purity) were prepared and purified by GL Biochem (Shanghai) Ltd. (Shanghai, China).
The peptides were dissolved in a mixture of acetonitrile and H2O and further diluted in 100 mM Tris-HCl pH 8.0 buffer to the desired concentrations. In a 96-well microplate, 25 µL of sample were pre-incubated with 25 µL of 100 mM Tris-HCl pH 8.0 buffer and 35 µL of Gly–Pro–p-NA (0.29 mM in 100 mM Tris-HCl buffer pH 8.0) at 37 °C for 10 min. The enzymatic reaction was started by addition of 15 µL of DPP-IV solution (25 mU/mL) and carried out at 37 °C for 30 min. Sodium acetate buffer (1 M, pH 4.0, 100 µL) was added to stop the reaction and the absorbance of the released p-nitroaniline was measure at 405 nm using a Tecan Infinite® 200 Pro microplate reader. The positive and negative controls were prepared by using Tris-HCl buffer (100 mM, pH 8.0) in place of the sample and in place of the sample and enzyme solution, respectively.

[5] = target: T1, dipeptidyl-peptidase IV (DPP-IV); experiment: Determination of the mode of inhibition and the inhibition constant (Ki); type: biochemical
Method: The traditionally-synthesized peptides showing the highest inhibitory activity against DPP-IV were further studied for their mode of action on the enzyme as previously described with the following modifications: the substrate (25 µL) was combined with 100 mM Tris-HCl buffer pH 8.0 (35 µL) and the sample (25 µL) and pre-incubated for 10 min at 37 °C, after which the enzymatic reaction was started by addition of the DPP-IV enzyme (15 µL of a 25 mU/mL solution).
The mode of inhibition and Ki values of the inhibitory peptides were determined by fitting the initial velocity versus substrate concentration data to nonlinear regression models using the GraphPad Prism software (version 6, GraphPad Software, San Diego, CA, USA). The Ki values are expressed as final assay concentrations.

T1 sequence (P27487 whole entry): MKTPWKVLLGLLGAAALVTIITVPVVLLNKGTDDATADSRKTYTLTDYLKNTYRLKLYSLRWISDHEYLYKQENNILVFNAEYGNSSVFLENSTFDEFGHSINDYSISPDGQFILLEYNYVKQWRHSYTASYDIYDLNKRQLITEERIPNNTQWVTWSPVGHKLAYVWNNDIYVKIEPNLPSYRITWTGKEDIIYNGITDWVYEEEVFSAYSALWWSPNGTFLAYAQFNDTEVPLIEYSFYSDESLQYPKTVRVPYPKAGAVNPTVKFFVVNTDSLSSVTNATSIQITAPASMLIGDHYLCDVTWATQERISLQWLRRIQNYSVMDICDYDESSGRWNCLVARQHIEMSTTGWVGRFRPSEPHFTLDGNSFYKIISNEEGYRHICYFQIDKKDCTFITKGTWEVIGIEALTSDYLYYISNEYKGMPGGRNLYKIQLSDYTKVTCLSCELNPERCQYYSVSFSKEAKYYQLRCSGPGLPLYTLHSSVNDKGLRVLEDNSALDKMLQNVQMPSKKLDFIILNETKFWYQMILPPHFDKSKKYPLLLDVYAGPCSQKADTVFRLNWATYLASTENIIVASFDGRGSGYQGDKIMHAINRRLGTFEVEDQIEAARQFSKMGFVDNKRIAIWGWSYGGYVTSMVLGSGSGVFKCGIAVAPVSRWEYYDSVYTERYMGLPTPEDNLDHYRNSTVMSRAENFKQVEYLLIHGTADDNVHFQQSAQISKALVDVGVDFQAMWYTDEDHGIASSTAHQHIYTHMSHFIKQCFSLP

| Sequence | Reported Relationship to DPP-IV [1] | Binding of DPP-IV to cellulose-bound deca-peptide (in words) [2] | Percent inhibition of DPP-IV activity, SPOT-synthesized deca-peptides [3] | also measured |
| --- | --- | --- | --- | --- |
| IVTQTMKGLD [K5, reference compound] | Weak inhibitor | found to bind to DPP-IV | 16% | – |
| WCKDDQNPHS [F5] | – | moderate or no binding; also recorded: no or only moderate interaction with DPP-IV | 29% | Category: binding ([2]; peptide array spot, relative luminescence intensity): moderate/no binding; Category: inhibitory activity ([3]; class by decrease in DPP-IV activity): High inhibitory activity (High inhibitory activity refers to peptides able to cause more than 20% decrease in DPP-IV activity); % DPP-IV Inhibition Traditionally-Synthesized [4]: 51%; αKi ([5]; traditionally synthesized peptide, un-competitive inhibition, final assay concentration, average ± standard error, triplicate): 76 µM and 76 ± 5 µM; Mode of Inhibition ([5]; traditionally synthesized peptides, Lineweaver-Burk / nonlinear regression): Un-competitive |
| HSQGTFTSDY [K8, reference compound] | Inhibitor | found to bind to DPP-IV | 15% | – |
| LKPTPEGDLEIL | inhibitors | – | – | – |
| IPAVFKIDA | inhibitor | – | – | – |
| LKPTPEGDL | inhibitors | – | – | – |
| LPEWVCTTFH [C1, LPEWVCTTFH] | – | – | 26% | inhibition at 250 µM [4]: 26%; Ki [5]: 300 ± 16 µM |
